B1: anti-IL-15 Fab clone 4H10 (Fab, V domains shown)
VH: EVQLVQSGGGLVEPGGSLRLSCAASGLSISDAWMHWVRQVPGKGLEWVGLITNKTGGGTIIYAAPVKGRFTISRDDSKNTLYLQMNSLKTEDTAMYYCVTTYDQGYWGQGTMVTVSS
VL: ELVLTQSPSSLSASVGDRVTITCRASQSISRYLNWYQQKPGKAPKLLIYGASRLESGVPSRFSGSGSGTDFTLTISSLQPEDFATYYCQQSDSVPVTFGQGTRLEIKR
notes: Tested as a soluble Fab-pIII fusion molecule in E. coli culture supernatant (human Fd = VH+CH1 fused to phage pIII, human kappa light chain); Only the variable domains are tied to the clone; also called 3E3; 4H10 (3E3)
B2: anti-IL-15 Fab clone 8C5 (Fab, V domains shown)
VH: QVQLLQSGPGLVKPSQTLSLTCAISGDSVSSNSAAWNWIRQSPSRGLEWLGRTYYRSKWYNDYAVSVKSRITINPDTSKNQFSLQLNSVTPEDTAVYYCASHKDPGSSWYRQPFDYWGQGTMVTVS
VL: B1 VL
notes: Tested as a soluble Fab-pIII fusion molecule in E. coli culture supernatant; only the variable domains are tied to the clone
B3: anti-IL-15 Fab clone 1H3 (Fab, V domains shown)
VH: B1 VH
VL: ELVLTQSPGTLSLSPGERATLSCRASQSIFNYVAWYQQKPGQAPRLLIYDASNRATGIPARFSGSGSGTDFTLTISSLEPEDFAVYYCQQRSKWPPTWTFGQGTRVDIKR
notes: as for B2
B4: anti-TNF-α Fab clone TNFa#1 (Fab, V domains shown)
VH: QVQLLQSGGGLVKPGGSLRLSCVASGFTFSSYWMSWVRQAPGKGLEWIGEINHSGSTSYNPSLKSRVTISIDTSKNQFSLKLNSVATADTAVYYCARLGWTMVRGVKYYYGMDVWGQGTMVTVSS
VL: B1 VL
notes: Tested as a soluble Fab-pIII fusion molecule in E. coli culture supernatant; only the variable domains are tied to the clone; also called TNFα#1; #4
B5: anti-TNF-α Fab clone TNFa#2 (Fab, V domains shown)
VH: EVQLVQSGGGVVQPGRSLRLSCAASGFSFGDYAMHWVRQAPGKGLEWVSGISWNSRIIGYADSVKGRFTISRDKAKNSLYLQMSSLRTEDTAVYYCARMGGDSSGYYSEPYYYFDYWGQGTLVTVSS
VL: B1 VL
notes: Tested as a soluble Fab-pIII fusion molecule in E. coli culture supernatant; only the variable domains are tied to the clone; also called TNFα#2; #5
B6: anti-IL-15 Fab clone 3C1 (Fab, V domains shown)
VH: B1 VH
VL: DIVMTQSPSSLSASVGDRVPITCRASQGIRNDLGWYQQKPGKAPKLLIYAASSLQSGVPSRFSGSGSGTDFTLTISSLQPEDFATYYCLQDYNYPWTFGQGTQVEIKR
notes: Tested as a soluble Fab-pIII fusion molecule in E. coli culture supernatant; only the variable domains are tied to the clone; also called 4H7; 3C1 (4H7)

Key:
[1] = target: T1, MBP-IL-15 fusion protein (recombinant human IL-15 fused to maltose-binding protein) (human, UniProt P40933 49-162); assay: competitive inhibition ELISA; Fab-pIII supernatant pre-incubated with soluble antigen, then on coated antigen; Kd from IC50 (Klotz plot)
T1 construct: Expressed in E. coli TG1 and purified on amylose resin; also called recombinant human IL-15 antigen
T1 sequence (P40933 49-162 limits assumed): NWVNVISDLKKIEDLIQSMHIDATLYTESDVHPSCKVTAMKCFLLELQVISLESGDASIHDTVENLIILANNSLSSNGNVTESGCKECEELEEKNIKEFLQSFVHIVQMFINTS

[2] = target: T1, MBP-IL-15 fusion protein (recombinant …); assay: ELISA (Fig. 3a), Fab-pIII supernatant on coated antigen
[3] = target: T2, recombinant human TNF-alpha (human, UniProt P01375 77-233); assay: competitive inhibition ELISA; Fab-pIII supernatant pre-incubated with soluble antigen, then on coated antigen; Kd from IC50 (Klotz plot)
T2 construct: Bought protein; also called TNF-α; tumor necrosis factor-alpha
T2 sequence (P01375 77-233 limits assumed): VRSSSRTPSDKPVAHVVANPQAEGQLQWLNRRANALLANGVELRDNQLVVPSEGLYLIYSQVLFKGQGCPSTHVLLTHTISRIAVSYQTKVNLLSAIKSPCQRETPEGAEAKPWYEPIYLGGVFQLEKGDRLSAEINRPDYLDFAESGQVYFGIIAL

Row | Binder | Kd [1] | binding result [2] | Kd [3]
1 | B1 | 100 nM | – | –
2 | B2 | – | binds | –
3 | B3 | 700 nM | – | –
4 | B4 | – | – | 1000 nM
5 | B5 | – | – | 200 nM
6 | B6 | – | binds | –

Reference: patent publication KR20110049766A (dated 2011)
